Measurements from US6379665B1, “Phospholipase D polypeptide and DNA sequences” (Onyx Pharmaceuticals, Inc., priority 1996, dated 2002).

B1: mPLD2: murine phospholipase D2, approximately 932 amino acid protein, SEQ ID NO:8 (protein, UniProt P97813 1-933, looked up)
Phospholipase D2: MTVTQKNLFPYGDYLNSSQLHMEPDEVDTLREGEDPADRMHPYLAIYDLQPLKAHPLVFAPGVPVIAQVVGTERYTSGSKVGTCTLYSVRLTHGDFTWTTKKKFRHFQELHRDLQRHKVLMSLLPLARFAVTHSPAREAAAEDIPSLPRGGSEGSARHTASKQKYLENYLNRLLTMSFYRNYHAMTEFLEVSQLSFIPDLGSKGLEGVIRKRSGGHRVPGFTFCGRDQVCYRWSKRWLVVKDSFLLYMRPETGAISFVQLFDPGFEVQVGKRSTETRYGVRIDTSHRSLILKCSSYRQARWWGQEITELAQGSGRDFLQLHQHDSYAPPRPGTLARWFVNGAGYFAAVADAILRAQEEIFITDWWLSPEIYLKRPAHSDDWRLDIMLKRKAEEGVRVSILLFKEVELALGINSGYSKRTLMLLHPNIKVMRHPDLVTLWAHHEKLLVVDQVVAFLGGLDLAFGRWDDVQYRLTDLGDPSEPVHLQTPTLGSDPAATPDLSHNQFFWLGKDYSNLITKDWVQLDRPFEDFIDRETTPRMPWRDVGVVVHGVAARDLARHFIQRWNFTKTTKARYKTPLYPYLLPKSTSTANNLPFMIPGGQCATVQVLRSVDRWSAGTLENSILNAYLHTIRESQHFLYIENQFFISCSDGRTVLNKVGDEIVDRILKAHEQGQCFRVYLLLPLLPGFEGDISTGGGNSIQAILHFTYRTLCRGEHSILHRLKAAMGTAWRDYMSICGLRTHGELGGHPISELIYIHSKMLIADDRTVIIGSANINDRSLLGKRDSELAILIKDTEMEPSLMDGVEYQAGRFALSLRKHCFSVILGANTWPDLDLRDPVCDDFFQLWQETAENNATIYEQIFRCLPSNATRSLRALREYVAVESLATVSPSLAQSELAHIQGHLVHFPLKFLEDESLLPPLGSKEGMIPLEVWT
B2: hPLD1a: human phospholipase D1a, approximately 1074 amino acid protein, SEQ ID NO:2 (protein, listed as Homo sapiens)
chain: MSLKNEPRVNTSALQKIAADMSNIIENLDTRELHFEGEEVDYDVSPSDPKIQEVYIPFSAIYNTQGFKEPNIQTYLSGCPIKAQVLEVERFTSTTRVPSINLYTIELTHGEFKWQVKRKFKHFQEFHRELLKYKAFIRIPIPTRRHTFRRQNVREEPREMPSLPRSSENMIREEQFLGRRKQLEDYLTKILKMPMYRNYHATTEFLDISQLSFIHDLGPKGIEGMIMKRSGGHRIPGLNCCGQGRACYRWSKRWLIVKDSFLLYMKPDSGAIAFVLLVDKEFKIKVGKKETETKYGIRIDNLSRTLILKCNSYRHARWWGGAIEEFIQKHGTNFLKDHRFGSYAAIQENALAKWYVNAKGYFEDVANAMEEANEEIFITDWWLSPEIFLKRPVVEGNRWRLDCILKRKAQQGVRIFIMLYKEVELALGINSEYTKRTLMRLHPNIKVMRHPDHVSSTVYLWAHHEKLVIIDQSVAFVGGIDLAYGRWDDNEHRLTDVGSVKRVTSGPSLGSLPPAAMESMESLRLKDKNEPVQNLPIQKSIDDVDSKLKGIGKPRKFSKFSLYKQLHRHHLHDADSISSIDSTSSYFNHYRSHHNLIHGLKPHFKLFHPSSESEQGLTRPHADTGSIRSLQTGVGELHGETRFWHGKDYCNFVFKDWVQLDKPFADFIDRYSTPRMPWHDIASAVHGKAARDVARHFIQRWNFTKIMKSKYRSLSYPFLLPKSQTTAHELRYQVPGSVHANVQLLRSAADWSAGIKYHEESIHAAYVHVIENSRHYIYIENQFFISCADDKVVFNKIGDAIAQRILKAHRENQKYRVYVVIPLLPGFEGDISTGGGNALQAIMHFNYRTMCRGENSILGQLKAELGNQWINYISFCGLRTHAELEGNLVTELIYVHSKLLIADDNTVIIGSANINDRSMLGKRDSEMAVIVQDTETVPSVMDGKEYQAGRFARGLRLQCFRVVLGYLDDPSEDIQDPVSDKFFKEVWVSTAARNATIYDKVFRCLPNDEVHNLIQLRDFINKPVLAKEDPIRAEEELKKIRGFLVQFPFYFLSEESLLPSVGTKEAIVPMEVWT

Columns and labels:
[1] = test system: COS-7 cells; assay: standard headgroup assay of extracts of COS-7 cells transfected with mPLD2; type: biochemical; details: pCGN expression vector
Protocol: Human PLD1a was also expressed in COS-7 cells. A fragment of the hPLD1a cDNA encoding the entire open reading frame (nucleotides 93 through 3603 of the cDNA) was subcloned in-frame downstream of the cytomegalovirus promoter and the Flu epitope tag in the mammalian expression vector pCGN. COS-7 cells were transfected with 3 g of the resulting plasmid, pFlu-hPLD1, using lipofectamine (Life Technologies, Inc.). Forty-eight hours later, the cells were assayed for PLD activity in the standard headgroup assay referenced below. The time course of choline release varied linearly over time and in proportion to the amount of protein added.
mPLD2 activity was assessed as described in Example 3 for hPLD1. The mPLD2 protein coding sequence was subcloned in pCGN, an expression vector containing a CMV promoter, flu-epitope tag and an SV40 polyadenylation signal sequence. See Example 3. […] The protein coding sequence of mPLD2 was also subcloned in a baculovirus vector following the protocol of Example 3. mPLD2 activity was successfully detected using the procedures described in Example 3.

[2] = standard headgroup release assay, fractions of hPLD1a baculovirus-infected Sf9 cells; type: biochemical; details: Sf9 cells infected 48 hours
Protocol: To determine the activity encoded by recombinant hPLD1a, control and hPLD1a-encoding baculovirus-infected Sf9 cells were assessed using a standard headgroup release assay that measures the amount of tritiated headgroup (e.g. [^3H]choline) liberated by hydrolysis of the labeled substrate [^3H]PC. The assay procedure measures release of the choline headgroup from the radiolabeled PC and is based on a protocol previously described in Brown, Cell 75:1137-44 (1993). Using standard separation techniques, cytosolic and membrane fractions were prepared from uninfected Sf9 cells or Sf9 cells infected for 48 hours with the hPLD1 expressing baculovirus vector. Sf9 cells infected with native baculovirus vector or PLC-expressing baculovirus vector yielded modest PLD activity levels similar to untransfected cells.

[3] = substrate specificity and transphosphatidylation assay of hPLD1a; type: biochemical
Protocol: Samples of the reaction products were applied to a 1 ml HPLC column of Source 15S resin (Pharmacia Biotech Inc.) and washed with 10 ml of H2O and eluted with a 30 ml linear gradient of 0-1 M CH3COONH4 in water at a flow rate of 1 ml/min. 1 ml fractions were collected and their radioactivity determined by liquid scintillation counting. Compounds were identified by reference to authentic standards. For analysis of phospholipid products, the vescicles were of standard composition except that approximately 10-20×10^3 dpm of [^32P]PC, [^32P]PE or [^32P]PI (specific radioactivity 10,000 dpm/nmol) was substituted for the [^3H]PC. Incubations were exactly as described except that transphosphatidylation assay contained 2% v/v EtOH. The assays were terminated by addition of 232 l of 1:1 CHCl2, MeOH. After mixing and centrifugation, the lower phases were removed, dried under vacuum, and analyzed by TLC on oxalate-impregnated Whatman 60A silica gel plates in a solvent system of CHCl2, MeOH:acetic acid (13:3:1, v/v). […]
To assess hPLD1a's substrate specificity, the standard PLD assay was carried out using [^32P]PE and [^32P]PI following the method as describe in Brown, Cell 75: 1137-44 (1993). […] To determine whether hPLD1a was capable of transphosphatidylase activity, EtOH was added to the reaction mixture and the products analyzed by thin layer chromatography. […]

[4] = test system: HL-60 cells; assay: RT-PCR quantification of hPLD1a and hPLD1b during dbcAMP-induced HL-60 cell differentiation; type: cell-based, human; details: 0.5 mM dbcAMP
Protocol: To analyze changes in the levels of hPLD1 a and hPLD1b during HL-60 cell differentiation induced by dcbAMP, HL-60 cells maintained in RPMI-1640 medium supplemented with 10% fetal bovine serum, 100 units/ml penicillin and 100 µg/ml streptomycin in a humidified atmosphere containing 5% CO2, at 37 C. were grown in RPMI-1640 medium without fetal bovine serum for 24 hours. Differentiation was initiated by the addition of 0.5 mM dbcAMP. Levels of PLD1a and PLD1b were quantified by RT-PCR. Total RNA was isolated from the HL-60 cells at the exponential growth stage by the acid guanidine thiocyanate method following the protocol of Chomczynski, Anal. Biochem. 162: 156-62(1992). Two g of RNA was reverse transcribed by using random hexamer mixed primers. The number of amplification cycles were determined to individual primer sets in order to maintain exponential rate of product amplification. Amplified DNA fragments were subjected to electrophoresis on 1.5% agarose gel and visualized by ethidium bromide staining. The intensity of bands was quantified by a densitometer (Atto Densitograph, Tokyo, Japan). Primer A (Forward): nucleotides 1475 through 1491; primer B (reverse) nucleotides 2133 through 2113 of SEQ ID NO: 1. Amplification conditions used were 94 C. for 30 seconds, 60 C. for 1 minute, and 72 C. for 1 minute; 25-27 cycles.

Row | Molecule | PLD activity in transfected COS-7 cell extracts [1] | cytosolic PLD activity above control ([2]; cytosolic fraction) | membrane-associated PLD activity above control ([2]; membrane fraction) | transphosphatidylase activity ([3]; EtOH added, [^32P]PC, TLC) | hydrolysis of PE or PI ([3]; [^32P]PE and [^32P]PI as substrates) | increase in level (printed as activity) on day 1 ([4]; day 1, RT-PCR) | increase in level (printed as activity) on day 2 ([4]; day 2, RT-PCR) | increase in level (printed as activity) on day 3 ([4]; day 3, RT-PCR)
1 | B1 | far above COS-7 background levels | – | – | – | – | – | – | –
2 | B2 | – | 32 fold | 15 fold | catalyzes the formation of [^32P]phosphatidylethanol | unable to hydrolyze PE or PI | approximately 3 fold | approximately 4 fold | less than 4 fold
